Like-named read-outs stand apart in the source and are kept apart here.
B1: commercially available 27 kDa NIa proteinase (GibcoBRL) (protein)
chain: GESLFKGPRDYNPISSTICHLTNESDGHTTSLYGIGFGPFIITNKHLFRRNNGTLLVQSLHGVFKVKNTTTLQQHLIDGRDMIIIRMPKDFPPFPQKLKFREPQREERICLVTTNFQTKSMSSMVSDTSCTFPSSDGIFWKHWIQTKDGQCGSPLVSTRDGFIVGIHSASNFTNTNNYFTSVPKNFMELLTNQEAQQWVSGWRLNADSVLWGGHKVFMSKPEEPFQPVKEATQLMNELVYSQ
B2: TPWT (wild type 27 kDa NIa proteinase of tobacco etch virus, C-terminal His6 tag) (protein)
chain: MAESGESLFKGPRDYNPISSTICHLTNESDGHTTSLYGIGFGPFIITNKHLFRRNNGTLLVQSLHGVFKVKNTTTLQQHLIDGRDMIIIRMPKDFPPFPQKLKFREPQREERICLVTTNFQTKSMSSMVSDTSCTFPSSDGIFWKHWIQTKDGQCGSPLVSTRDGFIVGIHSASNFTNTNNYFTSVPKNFMELLTNQEAQQWVSGWRLNADSVLWGGHKVFMSKPEEPFQPVKEATQLMNELVYSQLHHHHHH

Key:
[1] = system: 17 kDa substrate containing the target cleavage site Glu-Asn-Leu-Tyr-Phe-Gln-Gly (SEQ ID NO: 5)
[2] = biological target: 17 kDa substrate containing the target cleavage site Glu-Asn-Leu-Tyr-Phe-Gln-Gly (SEQ ID NO: 5); remark: listed apart in the source

Molecule | specific activity for substrate cleavage [1] | specific activity for substrate cleavage [2] | substrate cleavage (SDS-PAGE) [2]
TPSN (mutant 27 kDa NIa proteinase with Ser219 to Asn mutation, C-terminal His6 tag) | TPWT and TPSN have similar activity to each other and to the commercially available proteinase at all substrate concentrations tested | – | –
B1 | – | TPWT and TPSN have similar activity to each other and to the commercially available proteinase at all substrate concentrations tested | produces a ˜15 kDa peptide when cleaved with commercially available 27 kDa NIa proteinase (GibcoBRL)
B2 | – | TPWT and TPSN have similar activity to each other and to the commercially available proteinase at all substrate concentrations tested | –

Source: US20040072179
